Target: the molecule itself
Assay: single-molecule TIRF microscopy of DNA looping

B1: enhanced green fluorescent protein-MuB fusion (EGFP-MuB) (natural protein, bacteriophage Mu, UniProt P03763 1-312, looked up)
chain: MNISDIRAGLRTLVENEETTFKQIALESGLSTGTISSFINDKYNGDNERVSQMLQRWLEKYHAVAELPEPPRFVETQTVKQIWTSMRFASLTESIAVVCGNPGVGKTEAAREYRRTNNNVWMITITPSCASVLECLTELAFELGMNDAPRRKGPLSRALRRRLEGTQGLVIIDEADHLGAEVLEELRLLQESTRIGLVLMGNHRVYSNMTGGNRTVEFARLFSRIAKRTAINKTKKADVKAIADAWQINGEKELELLQQIAQKPGALRILNHSLRLAAMTAHGKGERVNEDYLRQAFRELDLDVDISTLLRN
- binding result: binds
